The values that follow come from patent publication US20040071707A1, “Modulation of cell growth” (priority 2000, published 2004).

One experiment relates to HUVEC. Nature of the experiment: In vitro endothelial cell proliferation assay. The format is cell-based, Human. The following applies: for bFGF induced EC growth: 10 ng/mL bFGF, non-toxic doses (<40 μg/mL) for K2P fragments; for effect on basal HUVEC/EC growth (substance alone): M199 with 2% FBS, 4 days, colorimetric. How it is done:
Human umbilical vein endothelial cells (HUVEC) were purchased from Clonetics or isolated from umbilical vein cords by mild collagenase treatment as described and cultured in M199 with Earle's salts (Sigma) with 20% heat inactivated fetal bovine serum (Sigma), 100 IU/mL penicillin 100 μg/mL streptomycin (Gibco), 250 ng/mL fungizone (Gibco), 2 mM glutamine (Gibco), 5 IU/mL heparin (Sigma) and 50 μg/mL ECGS (Technoclone, Vienna, Austria). Human vascular smooth muscle cells (HVSMC) were isolated as described.
3×10^3 cells were plated in 96-well plates and allowed to attach overnight. Growth was arrested by incubation with 100 μL reduced growth medium (M199 with 2% FBS) for 24 h. Thereafter anti-tPA antibodies and other reagents were added to wells. K2P (Reteplase), anti-kringle 2 (7VPA) and anti-finger/EGF antibodies (3VPA and 6VPA) were a gift from Technoclone, Vienna, Austria. Anti-kringle 1 (PAM-2), anti-kringle 2 (ESP1) and anti-protease (374B and ESP2) antibodies were purchased from American Diagnostica, Alpha Labs, UK. D-mannitol and LY294002 were obtained from Sigma. VEGF121 and bFGF were purchased from R&D Systems Inc., UK. Recombinant single chain tPA (rsctPA) was obtained from Boehringher Ingelheim. The mutant alatPA was kindly provided by Prof. Roger Lijnen (Center for Molecular and Vascular Biology, Leuven, Belgium). Aprotinin was purchased from Boehringer Mannheim. The tPA peptides (tPA I and tPA II) corresponding to residues 7-17 and 15-26 respectively were synthesized by the Clinical Sciences Centre peptide synthesis facility at Hammersmith and the ICRF peptide unit. Rp-cAMPS and Lavendustin A were obtained from Calbiochem, UK. After 4 days of incubation cell number was quantified colorimetrically by the addition of 20 μL CellTiter 96 AQueous One Solution Cell Proliferation Assay (Promega) at 492 nm and 620 nm reference filter. Background absorbance was determined with substrate alone and subtracted from all wells.
HUVEC were plated at 1×10^5 cells in 12 well plates overnight. Medium was replaced with reduced growth medium overnight followed by addition of anti-K2 antibody. Control wells contained M199 and 2% FBS alone. After 3 days incubation cells were counted in a hemocytometer.

A further experiment has as its system HVSMC. Nature of the experiment: HVSMC growth (proliferation assay). It counts as cell-based, Human. The procedure:
(A and B). HUVEC or HVSMC cultures were incubated with increasing concentrations of PMSF inactivated K2P (K2P-PMSF) or control treated K2P either in the absence (A) or presence (B) of 10 ng/mL bFGF at the concentrations indicated. Angiostatin was included as a positive control for inhibition of bFGF mediated cell growth. HUVEC results represent mean of at least three independent experiments with three different batches of HUVEC. Experiments with HVSMC were repeated twice. (C and D). HUVEC were treated with 100 μg/mL K2P-PMSF and increasing concentrations of either anti-kringle 2 antibody, 7VPA (C) or rsctPA (D) for four days as indicated. Control wells contained M199 and 2% FBS alone. Data represent mean±SE of duplicate experiments with two different batches of HUVEC. […]
3×10^3 cells were plated in 96-well plates and allowed to attach overnight. […] After 4 days of incubation cell number was quantified colorimetrically by the addition of 20 μL CellTiter 96 AQueous One Solution Cell Proliferation Assay (Promega) at 492 nm and 620 nm reference filter. Background absorbance was determined with substrate alone and subtracted from all wells.

B1: kringle 2: kringle 2 domain of tPA purified from K2P by limited elastase digestion and lysine-Sepharose (protein)
chain: CYFGNGSAYRGTHSLTESGASCLPWNSMILIGKVYTAQNPSAQALGLGKHNYCRNPDGDAKPWCHVLKNRRLTWEYCDVPSC
On to B1, for which, in the experiment on HUVEC (10 ng/mL VEGF), the “VEGF stimulated HUVEC growth” value is reported as “significantly inhibited”. In addition, in the experiment with HUVEC, the “bFGF induced EC growth” value is reported as “significantly inhibited” and the “effect on basal HUVEC/EC growth (substance alone)” value (shortened to “effect on basal HUVEC/EC growth”) is recorded as “significantly inhibited”.

B2: K2P-PMSF: proteolytically inactivated K2P (protease domain inactivated with PMSF) (protein)
chain: SYQVICRDEKTQMIYQQHQSWLRPVLRSNRVEYCWCNSGRAQCHSVPVKSCSEPRCFNGGTCQQALYFSDFVCQCPEGFAGKCCEIDTRATCYEDQGISYRGTWSTAESGAECTNWNSSALAQKPYSGRRPDAIRLGLGNHNYCRNPDRDSKPWCYVFKAGKYSSEFCSTPACSEGNSDCYFGNGSAYRGTHSLTESGASCLPWNSMILIGKVYTAQNPSAQALGLGKHNYCRNPDGDAKPWCHVLKNRRLTWEYCDVPSCSTCGLRQYSQPQFRIKGGLFADIASHPWQAAIFAKHRRSPGERFLCGGILISSCWILSAAHCFQERFPPHHLTVILGRTYRVVPGEEEQKFEVEKYIVHKEFDDDTYDNDIALLQLKSDSSRCAQESSVVRTVCLPPADLQLPDWTECELSGYGKHEALSPFYSERLKEAHVRLYPSSRCTSQHLLNRTVTDNMLCAGDTRSGGPQANLHDACQGDSGGPLVCLNDGRMTLVGIISWGLGCGQKDVPGVYTKVTNYLDWIRDNMRP
With B2, in the experiment with HVSMC (10 ng/mL bFGF), the “HVSMC growth in the presence of bFGF” value was “No inhibition”. Further, the “basal HVSMC growth, % of control” value in the experiment with HVSMC (highest concentration used (100 μg/mL)) is 65 % of control. Besides, in the experiment on HUVEC, the “bFGF induced EC growth” value is given as “completely inhibited” and the “effect on basal HUVEC/EC growth” value is “inhibited”. In the experiment on HUVEC (HUVEC growth, bFGF 10 ng/mL (FIG. 4B)), the “concentration giving 50% inhibition” value came out at 30 µg/mL.

B3: rsctPA: Recombinant single chain tPA (protein)
chain: B2 chain
Turning to B3, in the experiment with HUVEC, the “effect on basal HUVEC/EC growth” value is listed as “neither rsctPA nor alatPA could stimulate EC growth”.
